Results reported in PMC3983218.

Molecular target: EcoSSB (Escherichia coli, UniProt P0AGE0)
Test: EMSA; Complex I at low and Complex II at high SSB; 0.2, 2, 10 pmol tetramer, 1 pmol DNA; 20 mM Tris-HCl pH 8.0, 50 mM NaCl, 5% glycerol, 50 μg/ml BSA, 15 μl, 30 min at 4°C; 8% native PAGE in 1x TBE
Settings: protein: recombinant; chain copies: 4; label: 5' 32P; single strand

Chain of EcoSSB (P0AGE0 whole entry): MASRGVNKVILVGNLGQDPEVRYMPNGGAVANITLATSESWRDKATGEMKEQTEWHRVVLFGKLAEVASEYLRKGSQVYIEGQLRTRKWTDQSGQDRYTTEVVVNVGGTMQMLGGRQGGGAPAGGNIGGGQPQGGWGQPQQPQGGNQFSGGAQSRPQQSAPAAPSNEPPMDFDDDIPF

B1: 79 mer ssDNA (ssDNA)
DNA: GCACTAGTGCGGATAGCCCCGTGTTGTTGTCTGACCCCCGACCCCGACGGCAATGCGGGGCAATCCCCTGGAGGCCTGC
Question: Does B1 bind?
Answer: Result: binds
